Source: the supplement of paper PMC9170038

Test system: MS2 coat protein
Test: apparent KD of MS2 coat protein; designed switch direction (-1 OFF switch, 1 ON switch): -1; higher = weaker reporter binding
Summary of the method: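 An oligonucleotide input, 200 uM small-molecule ligand, or no input was present during titration of SNAP-549-labelled MS2 coat protein, which was doubled from 0.7 or 1.5 nM to 3 µM. Designed RNA switches had been transcribed on Illumina chips by stalled E. coli RNA polymerase. Apparent KD per design is the median over clusters of curves fitted to normalised cluster fluorescence.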

[1] = Eterna round: R95, input ligand: microRNA oligo, concentration not stated
[2] = Eterna round: R95, input ligand: FMN 200 uM
[3] = Eterna round: R95, input ligand: none
[4] = input ligand: microRNA oligo, concentration not stated

Sequence | apparent KD of MS2 coat protein [1] | apparent KD of MS2 coat protein (input ligand: FMN 200 uM) | apparent KD of MS2 coat protein (input ligand: none) | other results
GUGAAACAUGAGGAUCACCCAUGUGAGGAUAUGUUUUAGUACUGCUGACAGUACAUCUAUAGAAGGCACAAAGG [Mat - Mod of JL D69] (puzzle: Exclusion 1) | 25.4 nM | – | – | –
GUGAAGGUAGGAUAUACGAUAAUAUAGGGUAGAUAUAUAACACAUGAGGAUCACCCAUGUAGAAGGACCAAUUG [Mat - Exclusion 2 - Mod of my Tesla design - D59] (puzzle: Exclusion 2) | 29.1 nM | – | – | –
GUGAAGUAAGGAUAUACAUGAGGAUCACCCAUGUAAGGGAAGGUGAUGGGAGUAGAUAGUAGAAGGUACGAGGA [JR_Exclu3_Sub066] (puzzle: Exclusion 3) | 103 nM | – | – | –
GUGAAGUGAGGAUAUACGAGAGAGGCUGAACCGGACGAGAAGUAGAAGGCACAUGAGGAUCACCCAUGUACGGG [JR_Exclu4_Sub023] (puzzle: Exclusion 4) | 164 nM | – | – | –
GUGAUAUAGUUAGUGGCCUACAUGAGGAUCACCCAUGUGAGGGAAAUGUUGAGGCGAAAGUUUUUUGCUCGUCUUUA [JR_SV3TOV1_Sub038] (puzzle: Sensor v3, turn-off variant 1) | 38.6 nM | – | – | apparent KD of MS2 coat protein [2]: 18 nM; apparent KD of MS2 coat protein [3]: 19.1 nM
GUGAUCUAUCAUGGGAUAAACAUGAGGAUCACCCAUGUACACAAGUUUUUUGCUCGUCUUAUAAUAAGAUAGAUCAC [Antenna 3 - Jieux - Sensor, turn-off variant 1] (Eterna round: R97, puzzle: Sensor, turn-off variant 1) | – | 21 nM | 20.9 nM | –
GUGAUCUAUCAUGUAAUGAACAUGAGGAUCACCCAUGUAGACAAGUUUUUUGCUCGUCUCAUAAUAAGAUAGAUCAC [Antenna 17 - Jieux - Sensor, turn-off variant 1] (Eterna round: R97, puzzle: Sensor, turn-off variant 1) | – | 17.5 nM | 19.3 nM | –
GUGCAACAUGAGGAUCACCCAUGUCAGGAUAUGCGAAUUUCAUCAAAAGAUGAAAUUUGCAGAAGGGACAGCAC [Omei Ex1 A16] (Eterna round: R97, puzzle: Exclusion 1) | – | 32 nM | 24.4 nM | –
GUGCCACAUGAGGAUCACCCAUGUGAGGAUAUGGCCUGUUUGGCGUGUGCUGGCUCUGUCAGAAGGCGCGUGGG [salish99_ex1_r4_037] (Eterna round: R97, puzzle: Exclusion 1) | – | 39.1 nM | 26.8 nM | –
GUGCCGCGAGGAUAUACAGACGGGUCCAAAACGUGUCUCGGACUUGAGGAUCACCCAAGUAGAAGGCUUUUCAG [salish99_ex2_r4_621] (Eterna round: R97, puzzle: Exclusion 2) | – | 28.3 nM | 24.3 nM | –
GUGCCGCGAGGAUAUACAGACGGGUCCAAUACGUGUCUCGGACUUGAGGAUCACCCAAGUAGAAGGCUUUUCAG [LRO-Excl2-11-mod _r4_621 by salish99] (Eterna round: R97, puzzle: Exclusion 2) | – | 27.7 nM | 27.7 nM | –
GUGCUAUAGGAAGGAUAUACUUCAUUGUUUAAACAUGAGGAUCACCCAUGUAACCUUAUGUAUGUGUAGAAGGUCCAUAGCUUA (Eterna round: R96, puzzle: Exclusion NG 2) | – | 56.9 nM | 30.2 nM | apparent KD of MS2 coat protein [4]: 25.1 nM
GUGCUGGUAGGAUAUACAUGAGGAUCACCCAUGUGGCGUGACUCCUAUGGCAGCGCCGGUAGAAGGAUUAGAAG [Eternabot (L1) Solution 60] (Eterna round: R97, puzzle: Exclusion 3) | – | 188 nM | 261 nM | –
GUGGAGUAAGGAUAUACAUGAGGAUCACCCAUGUGAGGGUAUGUGAUGGGAGUAGGUUGUAGAAGGUACGAGGA [JR_Exclu3_Sub068] (puzzle: Exclusion 3) | 160 nM | – | – | –
GUGGGCUUUUAGGUUCUUAACAUGAGGAUCACCCAUGUGCUUGUCUUGCUGGCUGGCGGGUCGUCGGUCGGGCUUGU (Eterna round: R97, puzzle: Sensor, turn-off variant 1) | – | 489 nM | 584 nM | –
GUGGGUUACAUGAGGAUCACCCAUGUAGAGUGGGAAGAGAGAUAGGAUAUGAUGUGAGAAUUAUAUCAGAAGGAUCGAGACUCG [AK ExNG3-2.4] (Eterna round: R96, puzzle: Exclusion NG 3) | – | 268 nM | 214 nM | apparent KD of MS2 coat protein [4]: 136 nM
GUGGUACAUGAGGAUCACCCAUGUCAGGAUAUCGCGUGGUUUUUUGCGGCCGCGCGCGCGAGAAGGGACGUCUU (puzzle: Exclusion 1) | 29.1 nM | – | – | –
GUGGUACAUGAGGAUCACCCAUGUUAGGAUAUCGCGUGAGGUUUUACUUCCACACACACGAGAAGGGACGUCUU (puzzle: Exclusion 1) | 41 nM | – | – | –
GUGUAACUACACGGGCUCAACAUGAGGAUCACCCAUGUCAUACACGCAAGCUUUCUGCUUGUCUUAUCUGUCCGUGA [Acela] (puzzle: Sensor v3, turn-off variant 1) | 12.5 nM | – | – | apparent KD of MS2 coat protein [2]: 13.2 nM; apparent KD of MS2 coat protein [3]: 10.4 nM

Sequence | apparent KD of MS2 coat protein [1] | apparent KD of MS2 coat protein (input ligand: FMN 200 uM) | apparent KD of MS2 coat protein (input ligand: none) | other results
GUGUACAGAGGAUAUACAUGAGGAUCACCCAUGUGAAUAAGAUAGAAUAAGAUAAAGUGUAGAAGGCUGAGUGU [Excluse me!!! 1 - Jieux - Exclusion 3] (puzzle: Exclusion 3) | 35.7 nM | – | – | apparent KD of MS2 coat protein [2]: 28.8 nM; apparent KD of MS2 coat protein [3]: 38.4 nM
GUGUACAGAGGAUAUACUCAUGGAGUUACGAAAGUAACUUCACAUGAGGAUCACCCAUGUAGAAGGCUGUACAC [Dot plot directed v9] (puzzle: Exclusion 2) | 341 nM | – | – | –
GUGUACAGAGGAUAUGCUUGAAUCUAGCGAAGCUAGGUUCGACAUGAGGAUCACCCAUGUAGAAGGCUGUACAC [Dot plot directed A v3] (puzzle: Exclusion 2) | 13.4 nM | – | – | –
GUGUACGGAGGAUAUAUGUGGGCAGCAUACGCUGCAGCUUCACAUGAGGAUCACCCAUGUAGAAGGCUGUACAC [Mat - Exclusion 2 - Mod of Hyphema - D102] (puzzle: Exclusion 2) | 21.4 nM | – | – | –
GUGUACGGAGGAUAUGCUGGAAUCUAGCGAAGCUAGGUUCCACAUGAGGAUCACCCAUGUAGAAGGUCGUACAC [Dot plot directed A v8] (puzzle: Exclusion 2) | 29.6 nM | – | – | –
GUGUACGUAGGAUAUGCUGGAAUCUAGCGAAGCUAGGUUCCACAUGAGGAUCACCCAUGUAGAAGGGCGUACAC [Dot plot directed A v9] (puzzle: Exclusion 2) | 132 nM | – | – | –
GUGUAGAUAGGAUAUACGUGAGUCUAGCGAAGCUAGAUUCUACAUGAGGAUCACCCAUGUAGAAGGGUCUACAC [Fiskers Ex 2 - 27] (puzzle: Exclusion 2) | 15.1 nM | – | – | –
GUGUAGGUAGGAUAUACAUGAGGAUCACCCAUGUGAAUAAGAUAGAAUAAGAUAAAGUGUAGAAGGACUAGUGU [Excluse me!!! 14 - Jieux - Exclusion 3] (puzzle: Exclusion 3) | 38.7 nM | – | – | –
GUGUAGUCAGGAUAUACAUAGGAAGAGAAGAGAAGAGAAGUACAUGAGGAUCACCCAUGUAGAAGGGACAGUGU [Excluse me!! 6 - Jieux - Exclusion 2] (puzzle: Exclusion 2) | 21.7 nM | – | – | –
GUGUAGUCAGGAUAUACAUAGGAAGAUAAGAUAAGAUAAGCACAUGAGGAUCACCCAUGUAGAAGGGACAGUGU [Excluse me!! 1 - Jieux - Exclusion 2] (puzzle: Exclusion 2) | 74.2 nM | – | – | apparent KD of MS2 coat protein [2]: 159 nM; apparent KD of MS2 coat protein [3]: 122 nM
GUGUAGUCAGGAUAUACAUGAGGAUCACCCAUGUGAAUAAGAUAGAAUAAGAUAAAGUGUAGAAGGGAUAGUGU [Excluse me!!! 22 - Jieux - Exclusion 3] (puzzle: Exclusion 3) | 30.7 nM | – | – | –
GUGUAGUGAGGAUAUACAUGAGGAUCACCCAUGUGAAUAAGAUAGAAUAAGAUAAAGUGUAGAAGGCAUAGUGU [Excluse me!!! 21 - Jieux - Exclusion 3] (puzzle: Exclusion 3) | 39.3 nM | – | – | –
GUGUAGUGAGGAUAUCGUUGUUAGGAGGAGAAGGUAGGAGGCGAGAAGGCACAUGAGGAUCACCCAUGUAUGAG [JR_Exclu4_Sub063] (puzzle: Exclusion 4) | 23.5 nM | – | – | –
GUGUGCAGAGGAUAUACAGAGGAAAAGAAAAGAUAAGUGAUACAUGAGGAUCACCCAUGUAGAAGGCUGAGUGU [Excluse me!! 21 - Jieux - Exclusion 2] (puzzle: Exclusion 2) | 21.1 nM | – | – | apparent KD of MS2 coat protein [2]: 32.8 nM; apparent KD of MS2 coat protein [3]: 22.7 nM
GUGUGCAGAGGAUAUACAGAGGAAGAGAAGAGAAGAGAAGGACAUGAGGAUCACCCAUGUAGAAGGCUGAGUGU [Excluse me!! 19 - Jieux - Exclusion 2] (puzzle: Exclusion 2) | 30.2 nM | – | – | apparent KD of MS2 coat protein [2]: 33.7 nM; apparent KD of MS2 coat protein [3]: 31.6 nM
GUGUGCUGAGGAUAUACAGAGGAAGAUAAUACAAUAUAAGUACAUGAGGAUCACCCAUGUAGAAGGCAGAGUGU [Excluse me!! 11 - Jieux - Exclusion 2] (puzzle: Exclusion 2) | 23.4 nM | – | – | –
GUGUUACAUGAGGAUCACCCAUGUGAGGAUAUCAUGCUUCGUAGUAAACUACGAAGUGUGAGAAGGCAUAUGAC [Omei Ex1 E4] (Eterna round: R97, puzzle: Exclusion 1) | – | 50.7 nM | 56.5 nM | –
GUGUUGCGAGGAUAUAUAAGGGUAUGUUCUUAGGAUAUGGAACAUGAGGAUCACCCAUGUAGAAGGUGCAUAUC [JR_Ex2_Sub047] (Eterna round: R97, puzzle: Exclusion 2) | – | 67.8 nM | 33.9 nM | –
GUGUUUGAUGAGGAUAUCGAUGUGGGUAUAUAGCGAGAAGGCAUUACAUGAGGAUCACCCAUGUAGUGUGGGUU [JR_Ex6_Sub024] (Eterna round: R97, puzzle: Exclusion 6) | – | 33.3 nM | 35.6 nM | –
